Consider 23 sequences from the DeepSol protein solubility set.

The nature of this series: soluble on expression in E. coli; label from the status in PepcDB or PDB records.
Regarding “GMNDLKRLPYEPVKGLLPRPAVGTSERVITLPEPDRTSGMPLMGTLWLRKSTREFDQQPLPLKQLSELLWAAAGVNRSLGGGRTAPSPYGETVIDVYVALPAGLYRYDPVHHCLELKRAADLRSMTGYQDFVGMAPLDLVFVANHGRMQEMPPKLRETFSAAAAGAMAENAYLYCASAGLGAVVRGWLNRRQLAEHMSLNEDEEPILSQTIGRAASHVTTTQA”, the “soluble on expression in E. coli” value is given as “soluble”.
On to “AHHHHHHGSEFFEVLKKRRSIRRFQDKPVPRELIEKLLEAAFLSPSSYNKRPCHFIVVDDREKLEALSKSKLGASGLKTAPVAIVVTADESKSDVWIEDASIAAEHIHLASYALGLASFWVQIRNRMHNETKTAEEYVRELLNIPENYRVLCIIGVGYPAEDKPPHGNEVFEWEKVSYNEFGKRFK”, for which the “soluble on expression in E. coli” value is reported as “soluble”.
On to “MDMESQKILFALSTPMEIRNECCLPSHSSPKMYLGTCFFDLSSSWGIDDRDDLLRTIHRMIDNGHAARLAGFYHRWFRYSPCEWRDYLAELNEQGQAYAQFVASTAECCGEGGIKAWDYVRMGFLSRMGVLNNWLSEEESLWIQSRIHLRALRYYSNWRQYFAGYTFGRQYWQSPEDDHLPLLREFLARKEYDDSGNDMFYQLFASDDAYYPTLSWQPLAYYSACPETLKDMSDL”, for which the “soluble on expression in E. coli” value is given as “not soluble”.
As for “MILSVHILDQQTGKPAPGVEVVLEQKKDNGWTQLNTGHTDQDGRIKALWPEKAAAPGDYRVIFKTGQYFESKKLDTFFPEIPVEFHISKTNEHYHVPLLLSQYGYSTYRGS”, the “soluble on expression in E. coli” value is “soluble”.
Turning to “ADDILNVHRRNAKDPFAVGAVDAPLVITEFSDFECPFCARWSNQTEPTLMEEYVSKGLVRIEWNDLPVNGEHALAAAKAGRAAAAQGKFDEFRKALFEASRNVSGHPNNTLKDFERFARNAGVKDMERFSREAQDSTYDEVLTKAADYAHGLGVSGTPAFVVGTQYISGAQPTEEFIKVIESELKKSPTFSTPSSHQN”, the “soluble on expression in E. coli” value was “not soluble”.
Turning to “DCLLPIVAAPMAGGPTTVALAQAVSGVGGFPFLAGGYKSVEALATEIAVLRASGGNFGVNLFVPSPDMVDAEAFRIYAAKLQSEALPYGLRLDPLPVMGDDDGWPDKLALLLNDPVPVVSFTFGLPAVRDIAALRCAGSRVLASVTLPAEAQAAMEAGVDGLVVQGPDAGGHSATYDPGRPFTPLKTVSLVRRVCAVSSLPVIAAGGVDGPVMVRALLQAGAAAVAIGTLLLRTKESGATQVHKDALANPAYTETVITHAFTGRPARTLRNGFVNRYHASAPLGYPAIHHLTRPLRQAAASAGDADVLHLWAGTGYRQAMDGSAVDVIQ”, the “soluble on expression in E. coli” value is “not soluble”.
Turning to “MSTPRIEHYTTDVHAHWEGIHPQDWAEVDLIGYENAMDKMYRTLCENPDAALVQVGHRSKLLNDHGSDYRFNGKFTSEQTKPERSHHDYNHFGKLMKWEGDRWYKYDFEVEVTDHTRSE”, the “soluble on expression in E. coli” value was “not soluble”.
Consider “GSSPNLRYPIADVSGGIGMSPNYRFRQSMWIGIVSYSGSGLNWRVQVNSDIFIVNDYIHICLPAFDGFSIADGGDLSLNFVTGLLPPLLTGDTEPAFHNDVVTYGAQTVAIGLSSGGTPQYMSKNLWVEQWQDGVLRLRVEGGGSITHSNSKWPAMTVSYPRSFT”, for which the “soluble on expression in E. coli” value was “soluble”.
Consider “MKTSKFTEAQIAFALKQAELGTKVEEVCRKLGISEATFYNWKKKYGGVGPSELRRMRQLEEENTKLKRLVADLSLDKAMLQDVLSKKLAAALEHHHHHH”, for which the “soluble on expression in E. coli” value is listed as “not soluble”.
Take “MAYKKVLLAVNVYENADIVINSAVDFAKKNNTQVLKVVTVIDCVAPFAPSIVDFQHSIEQEAKEALDKLVTKISGIKVEHEVLVGNPAAEIVEYAEESNCDVIVLGSHATHGINLLLGSVANTVLHKAKCDVLTVRVNDDENADSKAHSYKRLLVPTDLENDSYVVVDKAKDIAKLYSAKIDTAFVIPNDSISLMTYETDKVETTLDKFAEKNGITGEKSVMIGGISNSLLEKAAENKNDLIVVGSHRRGAIGRFFLGSTANSILHQANVDVLVVRLK”: the “soluble on expression in E. coli” value is listed as “soluble”.
With “MTNNPLIPQSKLPQLGTTIFTQMSALAQQHQAINLSQGFPDFDGPRYLQERLAHHVAQGANQYAPMTGVQALREAIAQKTERLYGYQPDADSDITVTAGATEALYAAITALVRNGDEVICFDPSYDSYAPAIALSGGIVKRMALQPPHFRVDWQEFAALLSERTRLVILNTPHNPSATVWQQADFAALWQAIAGHEIFVISDEVYEHINFSQQGHASVLAHPQLRERAVAVSSFGKTYHMTGWKVGYCVAPAPISAEIRKVHQYLTFSVNTPAQLALADMLRAEPEHYLALPDFYRQKRDILVNALNESRLEILPCEGTYFLLVDYSAVSTLDDVEFCQWLTQEHGVAAIPLSVFCADPFPHKLIRLCFAKKESTLLAAAERLRQL”, the “soluble on expression in E. coli” value is recorded as “soluble”.
Take “MSLTWVSVEAKIDYELDPTVLFHLTEENAGDRFYYKKNDNKTSFFGYHAITRFKNDFENKQSIFREWQKYKSDIELIHPSSDKHHLKICGGFQFSMHKSGDEWREFGINHFILPEVLITMENGVSYITYTVKAEQFEIEQFKALIAHLTQNTIDSEFEIGNIKRIEDIYKDEWRDLVKDTIDVLDEHKKIVLARKRLVMFDKNINIPYILQKASQGEHNSYLFVLESQDSIFFSQTPEQLMEVNNGILSTKAVAGTIKRTHQDEVDKENIQAFLNDDKNLNEHRFVVESILNDIAPYVRDITFNETPQILTNDHLYHLYTKIKGQLENDSYIGLLDNLHPTPALGGYPKAEAIEYIEQNEFGTRGLYGAPVGYIDMNDDCEFIVAIRSMLIKKNQATLFAGCGIVKNSDADSEVEETAVKFNPMMKALGVEEYEGHHHHHH”: the “soluble on expression in E. coli” value is given as “not soluble”.
For the sequence “MGSDKIHHHHHHMPTGLDCTQTMLYRRFGKTNLHLSVFSLGTMRYLADSENVQQTIATALALGINHIETARGYGKSEEYFGQAIKVGLSVARSQLYVTTKIPPTSDADSMRRYIDESLERLNLDYLDCLGIHGLNTWEHLEWVQAKGGCMKAVEEAINDGRIRHVGFSTHGSLEVIQAAINTDFFEFVNLHYYYFFQRNAPAIKLASEKDMGIFIISPADKGGKLYTAPQTLQDLCQPLSPLELNYRFLLSDQRITTLSVGPATPEELVEPLQVADSCGELTSAEITIFQRLQNHQESVLETDKCSQCYACLPCPENINIPEVLRLRNLAVAYNMTDYGQYRYGMFENAGHWFPGMKANRCTECGDCLPRCPEKLDIPNLLEDAHNRLNGRAGRRLWG”, the “soluble on expression in E. coli” value was “not soluble”.
On to “MGSDKIHHHHHHKNTDLVAEDSICFPIDEHTYYASKSIFQFEENGHEYLSFLDAEYSQKINIYDIKNQKLIKTILLQKEGPNGMNVLSGCHPLNLNHFIITSWNGTFSLVNDKGEIEKKFDFWEKGVNFQEFDHISFSSYSYKPAIIKDSILYFSQSFLKHPRKKSDWNKIPMFAFANLNTGKTGWSELRYPLIFNKDEDFKNVKLYDPEICYTYTGKDVVISLGQYDSIMVSSDFKHKISYNAKSRYLAHAYPHLQDGQIDLFKNIQIQGKLPHYSHLMYDKYRKVFYRFALMPDDNIKPFSNNPHQSFSIIILNKDYEIIGETKFPGNTYTHHLCFVGKKGLYISENNENNPQFDENKLVFRCFTLQDRKK”, for which the “soluble on expression in E. coli” value is given as “not soluble”.
For “MTGEIVTVVKGKVRWVEGEQFIGRIEGDKCSVILGEGGISPMKLLLLSVAGCTSYDVVMILKKMREPIKGLEVEIEGVRREEHPRIYKEVTIHYKIYGNVNEKKARRAIELSQEKYCSASAHLKLSGTDVKYTLEVIRDDEPPSQLNK”, the “soluble on expression in E. coli” value was “soluble”.
For “SNAVRGFLIVGNKAFTQPFSLNDLPGAGRMDVLCRCTSQALFISHGIRRDVEVYLLLLGPPSPPKSILIKGDEVRRMSPDERNVAGHIKKALAVECGKSWKKVHSGVYVSRKGLEELIEELSEKYSIIYLKEDGVDISNAQLPPNPLFVIGDHEGLTEEQEKVVERYAALKLSLSPLSLLAEQCVVIAHHHLDRLQF”, the “soluble on expression in E. coli” value is reported as “soluble”.
Consider “MAHHHHHHMTQQWFPLMAVTPDYLHCITEERFRTNVYEPEADTFLLLEALDKDAHLLRALQPRRCVEIGCGSGTVISHLMLLLLGATEGGNLGSGSAEKSTAEFHAVDVNPVALEATSITWHNTQKRIIGGDTILPLHLHRGDLFSPFEHEASDITEYTKEEKEEFTFDVILFNPPYVPTTMEELQSAEAGKDLITAAWCGGPRGRVVVDRFISKLPSFLSSRGVCYIVAIRENDVEELMEVIRGTFPNDRCYPVNVTVTAERYTGEHLRVIRVS”, for which the “soluble on expression in E. coli” value was “not soluble”.
Regarding “FAPLEADHPGRSGLLALLDNPDAYAARALSARMAGRSLDLMYYIWRTDLTGWLLIEELLAAADRGVRVRLLLDDVNVQGFDRAFLALNQHPNVEVRLFNPIRNRGHVLRRTLEMLLGLSRFNRRMHNKAWIADGRLAIVGGRNIGDTYYDAEESGLAMSRDADVMLAGPVVAEVEGLFDSYWNLGLALPILTLWPE”, the “soluble on expression in E. coli” value is “not soluble”.
Consider “MKMKLTAAIIAAFVIIMGCAGGPKASKADELDLAIRDTSDYLNDNIPKGNKIIILNIQSDYASLSDYIIDELIANAVNDKIFKVVDRAQLEQIRAELNFQWSGEVDDKSALEIGKFLGAQTIVTGAISQLADRHRMRIRALNVKTAEVQGQYNRNITTSPMITALMKGGKSTNTSYGGKTRSGNSSGTTGGTSGAKTSQPATPEYKIGDTGPAGGLIFYDKKNNRNGWRYLEAAPANTERETFMSGDSPYSLGNKNLVGDGFENTQNMMKSIEKKGGGIGSAPYYCTNLVVNGFNDWYLPSFDEISLMYTNLHANNLGSFKQRDYWHSSEHGVVWGTYSFAKGEKGQHSYAYDNDKRLTRACRRF”, for which the “soluble on expression in E. coli” value is “not soluble”.
“MSAISPFVAIRRDLHQIPELGFQELKTQQYLLRYIQSLPQERLQVRTWKTGIFVKVNGTSPRKTIGYRADMDGLPIREETGLPYRSKHEGHMHACGHDVHMSIALGVLTHFAHHPLEDDLLFVFQPAEEGPGGAKPMLESDIMREWKPDMIVALHIAPEYPVGTIATKEGLLFANTSELFIDLKGRGGHAAFPHLANDMVVAACALVTQLQSIVARNVDPLDSAVITIGKIAGGTVQNVIAEHARLEGTIRTLSTAAMQKVKRRIEAIVHGIEVAYECETSIDYGAMYHEVYNDPDLTAEFMKFAKAHGGVNVIRCKEAMTGEDFGYMLAEIPGFMFWLGVDSPYGLHHAKLAPNEEAIDRAIAFLIDYFSWKGNAE”: the “soluble on expression in E. coli” value is recorded as “not soluble”.
Consider “MSLLDFSAHALPYASQRSPVHARRGMVATSQPQAAQVGLEILRRGGNAIDAAIATAAALTVVEPTGCGIGGDAFALVWTRGRLHGLDASGRAPGLLDRERVRAAGHERMPLYGWTPVTVPGCPAAWGELSRRFGKLPFEQLLRPAIELARDGFPVSPVIARLWQSGLDKFRAALPQRPELRAWFDEFLIDGRAPRAGEVFRQPGQADTLDELARSQCESFYRGELARAIVGHAECSGGYLRAEDLAGYQAKWVEPISLNYRGYDVWEIPPSGQGLIALMTLNILKGFEFGERDCARTWHRQLEAMKLAYVDGLHYISQPQSMRVSVEELLHEDYAASRRALIGERALDPSPGQPRPGGTVYLACGDEEGNLVSFIQSNYHGFGSGVVVPGTGIALQNRGAEFSLDPDHVNCLEPGKQTFHTIIPGFLSKDGVPLGPFGVMGAYMQPQGHVQMVMNLVDFGLNPQAALDAPRWQWLGGLRVGIEHAAPRALAAELAQRGHQVEIAYDSTSYGRGQIVLRDPASGVLCGGTEPRTDSQIAVWEGHHHHHH”, for which the “soluble on expression in E. coli” value is “not soluble”.
“MAHHHHHHMEANGTLVECKRGESDAVVFRFLIIDAPSPSSVPAYMKLLQRHNVMHIVRACGPTYNAEVFEKQGIVVHGWSFDDGASPTQTVIDNWLNLLEQEKNKSPPETIAVHCVSGLGRAPILVALALVEYGGMPPLDAVGYVRGRRKGAINQVQLNWLMRYKPRHQESNEGSLICARCTLM”: the “soluble on expression in E. coli” value is given as “soluble”.
As to “AIHAVCVLKGDSPVTGTIHLKEEGDMVTVTGEITGLTPGKHGFHVHEFGDNTNGCTSAGGHFNPHGKEHGAPEDENRHAGDLGNVVAGEDGKAVINMKDKLVKLTGPDSVIGRTLVVHVDEDDLGRGGHEQSKITGNAGGRLACGVIGITKE”, the “soluble on expression in E. coli” value is given as “soluble”.
